Among the data in publication PMC6366758 (2019) are koff and Kd values, retold here.

Assay [1] has as its target T1, Post-fusion F (human respiratory syncytial virus A2 …). Put plainly: SPR.
The target of assay [2] is T1, Post-fusion F. Put plainly: SPR. This is another data set of the same source.

B1: Motavizumab (antibody, V domains shown)
VH: QVTLRESGPALVKPTQTLTLTCTFSGFSLSTAGMSVGWIRQPPGKALEWLADIWWDDKKHYNPSLKDRLTISKDTSKNQVVLKVTNMDPADTATYYCARDMIFNFYFDVWGQGTTVTVSS
VL: DIQMTQSPSTLSASVGDRVTITCSASSRVGYMHWYQQKPGKAPKLLIYDTSKLASGVPSRFSGSGSGTEFTLTISSLQPDDFATYYCFQGSGYPFTFGGGTKVEIK
In turn, B1 gave a koff with Post-fusion F [1] of 1.44e-05 s⁻¹. This molecule showed a Kd with Post-fusion F [2] of 0.04 nM.

B2: R4.C6 monoclonal antibody (antibody, V domains shown)
VH: EVQLQQSGPELVKPGASVKISCKASGYAFSNSWMSWVKQRPGKGLEWIGRLFPADGDITYNGHFKDKAALTADKSSNTAYIQLSSLTSEDSAVYFCARMDNSEVFWGQGTLVTVSA
VL: DILLTQSQKFMSTSVGDRVSITCKASQNVRTGVSWYQRKPGQSPKALIYLASNRHTGVPDRFTGRGSGTDFTLTISEVQSEDLADYFCLQHWTVPYTFGGGTKLEIK
In the assay with Post-fusion F [1], B2 registered a dissociation rate constant (koff) of 3.74e-05 s⁻¹.
